Data on two molecules can be found in patent US20250019439A1 (Adimab, published 2025).

One experiment has as its target T1, ADI-26906 Fab.
T1 construct: anti-CD3 Fab by papain digestion of the IgG
Kind of experiment: BLI; tip ADI-34145 IgG, solution anti-CD3 Fab. How it is done: (§1) ForteBio affinity measurements were performed generally as previously described (Estep et al., MAbs. 2013 5(2):270-8). Briefly, ForteBio affinity measurements were performed by loading antibody IgG or Fabs on-line onto AHC sensors. Sensors were equilibrated off-line in assay buffer for 30 minutes and then monitored on-line for 60 seconds for baseline establishment. For avid binding measurement, sensors with loaded antibodies were exposed to IgG or Fab solutions for 3 minutes, afterwards they were transferred to assay buffer for 3 minutes for off-rate measurement. Kinetics data were fit using a 1:1 binding model in the data analysis software provided by ForteBio to obtain equilibrium dissociation constant (KD=koff/kₒₙ) values. In each column, tip-immobilized antibodies are listed first and solution antibodies second.
(§2) In each column, tip-immobilized antibodies are listed first and solution antibodies second.

For a further experiment, the target named is T2, ADI-22523 Fab.
T2 construct: anti-CD3 Fab by papain digestion of the IgG
As to the kind of experiment: BLI; tip ADI-34145 IgG, solution anti-CD3 Fab. How it is done: as §1, §2

For a further experiment, the target named is T3, ADI-26913 Fab.
T3 construct: anti-CD3 Fab by papain digestion of the IgG
Kind of experiment: BLI; tip ADI-34145 IgG, solution anti-CD3 Fab. The method, then:
as §1, §2

In the next experiment the target is T4, ADI-26954 Fab.
T4 construct: anti-CD3 Fab by papain digestion of the IgG
Kind of experiment: BLI; tip ADI-34145 IgG, solution anti-CD3 Fab. The method, then:
as §1, §2
For orientation: Biolayer interferometry detects binding as a change in optical thickness at a sensor tip.

The target of the next experiment is T5, CTL-62228.
T5 construct: also called glofitamab
Kind of experiment: SPR Carterra, yeast anti-ID. In short, it runs like this: (§3)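 Kinetic constants come from a 1:1 binding-model fit of double-referenced, drift-corrected sensorgrams. Anti-CD3 antibodies (100 nM) were captured via immobilized anti-human Fc, and anti-idiotype binding was recorded at 25° C in HBSTE, with dissociation monitored for 300s.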

In another experiment the target is T6, ADI-67445.
T6 construct: anti-CD3 antibody made in CHO cells, captured by anti-human Fc
Kind of experiment: SPR Carterra, yeast anti-ID. In short, it runs like this: as §3

For a further experiment, the target named is T7, CTL-62240.
T7 construct: also called ONO-4685
As to the kind of experiment: SPR Carterra, yeast anti-ID. In short, it runs like this: as §3

A further experiment addresses T8, CTL-62227.
T8 construct: also called odronextamab
As to the kind of experiment: SPR Carterra, yeast anti-ID. The essentials:
as §3

Experiment [1] deals with T9, CTL-62223.
T9 construct: also called mosunetuzumab
As to the kind of experiment: SPR Carterra, yeast anti-ID. In short, it runs like this: as §3

The target of experiment [2] is T10, ADI-70327.
T10 construct: anti-CD3 antibody made in CHO cells, captured by anti-human Fc
Kind of experiment: SPR Carterra, yeast anti-ID. In short, it runs like this:
as §3

The next experiment concerns the target T11, ADI-76359.
T11 construct: anti-CD3 antibody made in CHO cells, captured by anti-human Fc
As to the kind of experiment: SPR Carterra avidity, yeast anti-ID. The essentials: as §3

The target in the next experiment is T12, ADI-26906 IgG.
T12 construct: anti-CD3 IgG
Kind of experiment: SPR Carterra avidity, yeast anti-ID. The essentials: as §3

The target of a further experiment is T13, ADI-67447.
T13 construct: anti-CD3 antibody made in CHO cells, captured by anti-human Fc
Kind of experiment: SPR Carterra avidity, yeast anti-ID. In short, it runs like this: as §3

The target in another experiment is T14, ADI-26916 IgG.
T14 construct: anti-CD3 IgG
Kind of experiment: SPR Carterra avidity, yeast anti-ID. In short, it runs like this: as §3

The next experiment deals with T15, ADI-74968.
T15 construct: pH-dependent anti-CD3 antibody made in CHO cells
As to the kind of experiment: SPR Carterra avidity, yeast anti-ID. The essentials:
as §3

The next experiment addresses T16, ADI-26921 IgG.
T16 construct: anti-CD3 IgG
Kind of experiment: SPR Carterra avidity, yeast anti-ID. The essentials:
as §3

In a further experiment the target is T17, ADI-26915.
T17 construct: anti-CD3 antibody made in CHO cells, captured by anti-human Fc
As to the kind of experiment: SPR Carterra avidity, yeast anti-ID. The essentials:
as §3

The next experiment deals with T18, ADI-67450.
T18 construct: anti-CD3 antibody made in CHO cells, captured by anti-human Fc
As to the kind of experiment: SPR Carterra avidity, yeast anti-ID. The essentials:
as §3

The target of the next experiment is T19, ADI-26912.
T19 construct: anti-CD3 antibody made in CHO cells, captured by anti-human Fc
Kind of experiment: SPR Carterra avidity, yeast anti-ID. The essentials: as §3

The next experiment addresses T20, ADI-76361.
T20 construct: anti-CD3 antibody made in CHO cells, captured by anti-human Fc
As to the kind of experiment: SPR Carterra avidity, yeast anti-ID. The essentials: as §3

Another experiment addresses T21, ADI-76362.
T21 construct: anti-CD3 antibody made in CHO cells, captured by anti-human Fc
As to the kind of experiment: SPR Carterra avidity, yeast anti-ID. In short, it runs like this: as §3

The target in a further experiment is T22, ADI-70330.
T22 construct: anti-CD3 antibody made in CHO cells, captured by anti-human Fc
As to the kind of experiment: SPR Carterra avidity, yeast anti-ID. The essentials:
as §3

Another experiment deals with T23, ADI-74966.
T23 construct: pH-dependent anti-CD3 antibody made in CHO cells
As to the kind of experiment: SPR Carterra avidity, yeast anti-ID. In short, it runs like this:
as §3

Experiment [3] concerns the target T9, CTL-62223. Kind of experiment: SPR Carterra avidity, yeast anti-ID. The essentials:
as §3

Experiment [4] has as its target T10, ADI-70327. Kind of experiment: SPR Carterra avidity, yeast anti-ID. The essentials:
as §3

T9 sequence (VH, as listed by the source, chain 1 of 2): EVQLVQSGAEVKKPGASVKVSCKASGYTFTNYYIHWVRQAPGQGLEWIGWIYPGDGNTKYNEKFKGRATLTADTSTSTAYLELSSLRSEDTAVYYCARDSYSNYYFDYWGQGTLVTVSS
T9 sequence (VL, as listed by the source, chain 2 of 2): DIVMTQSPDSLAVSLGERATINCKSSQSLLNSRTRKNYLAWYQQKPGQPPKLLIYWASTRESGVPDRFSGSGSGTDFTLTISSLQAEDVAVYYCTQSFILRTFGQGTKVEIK
T10 sequence (VH, as listed by the source limits assumed, chain 1 of 2): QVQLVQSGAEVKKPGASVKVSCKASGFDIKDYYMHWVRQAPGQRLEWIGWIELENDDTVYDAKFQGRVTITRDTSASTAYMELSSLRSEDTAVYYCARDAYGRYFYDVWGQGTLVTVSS
T10 sequence (VL, as listed by the source limits assumed, chain 2 of 2): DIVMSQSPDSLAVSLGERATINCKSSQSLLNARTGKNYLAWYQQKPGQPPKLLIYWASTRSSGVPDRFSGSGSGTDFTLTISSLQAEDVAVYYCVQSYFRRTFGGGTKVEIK
T22 sequence (VH, as listed by the source limits assumed, chain 1 of 2): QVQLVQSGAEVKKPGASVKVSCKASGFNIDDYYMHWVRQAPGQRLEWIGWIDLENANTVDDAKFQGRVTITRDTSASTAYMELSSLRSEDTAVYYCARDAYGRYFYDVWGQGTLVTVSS
T19 sequence (VH, as listed by the source, chain 1 of 2): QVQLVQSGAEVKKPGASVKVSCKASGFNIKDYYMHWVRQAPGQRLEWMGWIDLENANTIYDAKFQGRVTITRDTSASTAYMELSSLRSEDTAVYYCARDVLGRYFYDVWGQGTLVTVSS
T19 sequence (VL, as listed by the source, chain 2 of 2): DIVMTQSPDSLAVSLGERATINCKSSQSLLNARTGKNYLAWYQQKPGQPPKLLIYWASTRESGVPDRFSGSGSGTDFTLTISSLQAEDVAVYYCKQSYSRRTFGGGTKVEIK
T8 sequence (VH, as listed by the source, chain 1 of 2): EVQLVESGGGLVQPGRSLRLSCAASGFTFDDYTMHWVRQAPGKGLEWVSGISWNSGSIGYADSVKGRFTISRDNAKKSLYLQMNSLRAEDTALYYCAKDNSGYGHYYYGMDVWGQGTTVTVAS
T8 sequence (VL, as listed by the source, chain 2 of 2): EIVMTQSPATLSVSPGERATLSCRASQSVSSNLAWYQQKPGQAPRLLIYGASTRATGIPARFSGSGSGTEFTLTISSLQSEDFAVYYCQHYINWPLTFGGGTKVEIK
T21 sequence (VH, as listed by the source, chain 1 of 2): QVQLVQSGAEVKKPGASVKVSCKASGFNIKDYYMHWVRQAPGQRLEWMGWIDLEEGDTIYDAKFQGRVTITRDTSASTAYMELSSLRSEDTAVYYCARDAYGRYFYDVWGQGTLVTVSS
T21 sequence (VL, as listed by the source, chain 2 of 2): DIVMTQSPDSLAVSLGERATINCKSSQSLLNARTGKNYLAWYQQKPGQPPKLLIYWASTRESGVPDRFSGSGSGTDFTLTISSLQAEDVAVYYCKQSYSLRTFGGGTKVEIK
T2 sequence (VH, as listed by the source limits assumed, chain 1 of 2): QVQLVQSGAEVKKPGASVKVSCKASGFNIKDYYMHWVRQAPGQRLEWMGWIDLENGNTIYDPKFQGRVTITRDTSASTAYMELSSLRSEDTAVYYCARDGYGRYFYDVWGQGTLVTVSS
T2 sequence (VL, as listed by the source limits assumed, chain 2 of 2): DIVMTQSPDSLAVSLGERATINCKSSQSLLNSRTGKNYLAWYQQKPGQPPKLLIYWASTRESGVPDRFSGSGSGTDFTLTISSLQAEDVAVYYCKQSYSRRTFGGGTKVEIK
T17 sequence (VH, as listed by the source, chain 1 of 2): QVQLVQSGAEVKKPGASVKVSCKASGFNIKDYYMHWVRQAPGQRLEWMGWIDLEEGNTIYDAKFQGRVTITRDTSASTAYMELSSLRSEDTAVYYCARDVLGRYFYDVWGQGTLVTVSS
T20 sequence (VH, as listed by the source, chain 1 of 2): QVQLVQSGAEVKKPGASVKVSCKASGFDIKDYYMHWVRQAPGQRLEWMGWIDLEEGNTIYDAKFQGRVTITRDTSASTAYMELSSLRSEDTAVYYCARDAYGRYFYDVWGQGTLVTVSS
T16 sequence (VH, as listed by the source limits assumed, chain 1 of 2): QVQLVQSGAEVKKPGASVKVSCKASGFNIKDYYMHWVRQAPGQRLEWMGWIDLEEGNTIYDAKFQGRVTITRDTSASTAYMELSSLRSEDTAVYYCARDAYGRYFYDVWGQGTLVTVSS
T23 sequence (VH, as listed by the source, chain 1 of 2): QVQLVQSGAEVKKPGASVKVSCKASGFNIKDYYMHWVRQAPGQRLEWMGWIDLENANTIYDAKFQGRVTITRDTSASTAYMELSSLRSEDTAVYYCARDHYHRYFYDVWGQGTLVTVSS
T23 sequence (VL, as listed by the source, chain 2 of 2): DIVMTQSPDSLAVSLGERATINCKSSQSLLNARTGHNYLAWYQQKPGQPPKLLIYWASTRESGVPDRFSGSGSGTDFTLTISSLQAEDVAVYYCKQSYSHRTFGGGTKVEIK
T14 sequence (VH, as listed by the source, chain 1 of 2): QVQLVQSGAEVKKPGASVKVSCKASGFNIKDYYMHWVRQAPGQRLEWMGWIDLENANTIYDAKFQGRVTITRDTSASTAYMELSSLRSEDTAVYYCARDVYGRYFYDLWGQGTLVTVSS
T15 sequence (VH, as listed by the source, chain 1 of 2): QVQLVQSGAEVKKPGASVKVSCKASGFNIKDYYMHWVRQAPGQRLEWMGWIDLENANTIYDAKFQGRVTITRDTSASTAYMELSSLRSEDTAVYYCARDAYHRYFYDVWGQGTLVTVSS
T11 sequence (VH, as listed by the source, chain 1 of 2): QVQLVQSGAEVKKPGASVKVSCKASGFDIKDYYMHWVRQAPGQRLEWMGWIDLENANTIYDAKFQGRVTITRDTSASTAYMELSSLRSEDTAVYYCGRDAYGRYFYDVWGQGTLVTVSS
T13 sequence (VH, as listed by the source limits assumed, chain 1 of 2): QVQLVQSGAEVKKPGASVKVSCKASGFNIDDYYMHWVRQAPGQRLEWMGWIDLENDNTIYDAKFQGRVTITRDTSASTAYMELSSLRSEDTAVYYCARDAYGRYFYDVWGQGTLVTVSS
T7 sequence (VH, as listed by the source, chain 1 of 2): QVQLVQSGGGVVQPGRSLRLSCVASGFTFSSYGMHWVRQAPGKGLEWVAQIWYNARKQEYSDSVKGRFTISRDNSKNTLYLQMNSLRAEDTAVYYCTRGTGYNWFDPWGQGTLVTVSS
T7 sequence (VL, as listed by the source, chain 2 of 2): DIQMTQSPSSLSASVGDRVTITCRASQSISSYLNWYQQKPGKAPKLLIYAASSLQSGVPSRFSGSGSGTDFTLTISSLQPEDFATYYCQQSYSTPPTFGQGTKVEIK
T3 sequence (VH, as listed by the source limits assumed, chain 1 of 2): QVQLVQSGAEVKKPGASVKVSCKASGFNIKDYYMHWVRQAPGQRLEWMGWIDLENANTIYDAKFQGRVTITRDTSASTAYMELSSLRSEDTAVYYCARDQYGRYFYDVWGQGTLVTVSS
T4 sequence (VH, as listed by the source limits assumed, chain 1 of 2): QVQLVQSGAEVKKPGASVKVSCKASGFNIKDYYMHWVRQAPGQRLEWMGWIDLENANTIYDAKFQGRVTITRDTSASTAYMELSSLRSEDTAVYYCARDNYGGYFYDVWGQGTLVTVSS
T4 sequence (VL, as listed by the source limits assumed, chain 2 of 2): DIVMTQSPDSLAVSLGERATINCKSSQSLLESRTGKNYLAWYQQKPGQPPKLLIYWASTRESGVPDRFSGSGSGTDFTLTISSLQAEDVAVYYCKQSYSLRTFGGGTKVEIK
T6 sequence (VH, as listed by the source limits assumed, chain 1 of 2): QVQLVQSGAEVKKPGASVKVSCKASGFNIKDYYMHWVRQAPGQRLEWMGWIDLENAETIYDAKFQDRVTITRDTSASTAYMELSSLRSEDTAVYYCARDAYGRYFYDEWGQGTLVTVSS
T18 sequence (VH, as listed by the source limits assumed, chain 1 of 2): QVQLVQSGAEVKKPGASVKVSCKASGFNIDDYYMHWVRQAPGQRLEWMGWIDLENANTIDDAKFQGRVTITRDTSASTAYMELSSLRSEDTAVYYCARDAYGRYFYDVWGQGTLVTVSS
T1 sequence (VH, as listed by the source limits assumed, chain 1 of 2): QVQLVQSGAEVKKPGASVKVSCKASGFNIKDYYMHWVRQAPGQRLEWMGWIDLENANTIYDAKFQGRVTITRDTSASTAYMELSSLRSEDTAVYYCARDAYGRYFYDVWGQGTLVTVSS

B1: ADI-34145 IgG (antibody, V domains shown)
VH: EVQLLESGGGLVQPGGSLRLSCAASGFTFSSYAMSWVRQAPGKGLEWVSTISGSGGSTYYADSVKGRFTISRDNSKNTLYLQMNSLRAEDTAVYYCARLGGRRGSGSSYYYYYGMDVWGQGTTVTVSS
VL: not shown
notes: anti-ID IgG
As to B1, the Kd in the experiment with ADI-26906 Fab is 3.55 nM; with ADI-22523 Fab, 4.13 nM; with ADI-26913 Fab, 7.52 nM; with ADI-26954 Fab it was 19.4 nM; with ADI-76359, 14 nM; with ADI-26906 IgG it was 14 nM. For the same molecule, the Kd is 27 nM with ADI-67447, 20 nM in the experiment with ADI-26916 IgG and 67 nM with ADI-74968. Besides, the binding result with CTL-62228, with ADI-67445, with CTL-62240, in the experiment with CTL-62227, with CTL-62223 [1] and with ADI-70327 [2] was “no binding (tested: up to 200 nM)” each time.

B2: ADI-34134 IgG (antibody, V domains shown)
VH: QVQLVQSGAEVKKPGSSVKVSCKASGGTFSSYAISWVRQAPGQGLEWMGGIIPIFGTANYAQKFQGRVTITADESTSTAYMELSSLRSEDTAVYYCARGAPNYYGSGGYDDGWFDPWGQGTLVTVSS
VL: EIVLTQSPGTLSLSPGERATLSCRASQSVSSDYLAWYQQKPGQAPRLLIYGASSRATGIPDRFSGSGSGTDFTLTISRLEPEDFAVYYCQQFGRVPTFGGGTKVEIK
With B2, the Kd came to 3.6 nM with ADI-26921 IgG; 19 nM with ADI-26915; 12 nM with ADI-67450; 34 nM with ADI-26912; 7.1 nM with ADI-76361; 6.3 nM with ADI-76362. Further, the Kd stood at 13 nM with ADI-70330, 52 nM in the experiment with ADI-74966, 18 nM with CTL-62223 [3] and 14 nM in the experiment with ADI-70327 [4].
